This note sets out measurements from PMC8670446 (2021).

The experiment concerns the target Ssa1 (S. cerevisiae, UniProt P10591 1-642). The experiment can be described thus: BLI; apparent KD from equilibrium levels; His6-SUMO-Ssa1 immobilized.

Chain of Ssa1 (P10591 whole entry): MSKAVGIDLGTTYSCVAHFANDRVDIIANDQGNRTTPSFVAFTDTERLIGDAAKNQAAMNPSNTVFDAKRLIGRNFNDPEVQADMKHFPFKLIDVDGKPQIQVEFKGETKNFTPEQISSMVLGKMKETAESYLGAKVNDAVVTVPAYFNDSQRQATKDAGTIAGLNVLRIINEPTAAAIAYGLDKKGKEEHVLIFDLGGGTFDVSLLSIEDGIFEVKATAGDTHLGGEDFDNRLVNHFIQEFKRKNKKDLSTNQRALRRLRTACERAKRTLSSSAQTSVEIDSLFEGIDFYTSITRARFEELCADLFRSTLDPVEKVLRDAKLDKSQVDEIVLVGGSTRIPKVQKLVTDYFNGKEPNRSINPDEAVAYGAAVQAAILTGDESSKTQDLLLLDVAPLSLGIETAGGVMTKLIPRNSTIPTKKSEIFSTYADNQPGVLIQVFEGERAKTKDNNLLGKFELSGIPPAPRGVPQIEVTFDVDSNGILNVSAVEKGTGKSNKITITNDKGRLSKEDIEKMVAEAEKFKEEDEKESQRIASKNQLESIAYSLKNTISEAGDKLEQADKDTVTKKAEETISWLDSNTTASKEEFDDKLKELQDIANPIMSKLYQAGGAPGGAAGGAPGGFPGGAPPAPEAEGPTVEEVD

B1: Sis1 (natural protein)
chain: MVKETKLYDLLGVSPSANEQELKKGYRKAALKYHPDKPTGDTEKFKEISEAFEILNDPQKREIYDQYGLEAARSGGPSFGPGGPGGAGGAGGFPGGAGGFSGGHAFSNEDAFNIFSQFFGGSSPFGGADDSGFSFSSYPSGGGAGMGGMPGGMGGMHGGMGGMPGGFRSASSSPTYPEEETVQVNLPVSLEDLFVGKKKSFKIGRKGPHGASEKTQIDIQLKPGWKAGTKITYKNQGDYNPQTGRRKTLQFVIQEKSHPNFKRDGDDLIYTLPLSFKESLLGFSKTIQTIDGRTLPLSRVQPVQPSQTSTYPGQGMPTPKNPSQRGNLIVKYKVDYPISLNDAQKRAIDENF
With B1, the Kd stood at 210 nM.
